Data as given in patent US9657092B2, “S100A4 antibodies and therapeutic uses thereof” (LYKERA BIOMED SA, priority 2010, dated 2017).

Key:
Mouse S100A4 = target: T1, Mouse S100A4 (Mus musculus, UniProt P07091); experiment: ELISA specificity (reaction pattern of mAb); assay type: binding; set-up: key to Reaction Pattern of mAb in ELISA, Mouse S100A4: ++++ positive reaction; − no reaction
T1 construct: made in house

[1] = tested on: MMP9 proteolytic activity induced by S100A4; experiment: Gelatin zymography of HUVECs conditioned media; assay type: cell-based, human; conditions: 1-2 μM antibody with S100A4 1 μM, 24 h
Experimental: HUVECs were grown in EBM plus supplements (EGM) and 10% FCS, in 24-well culture plates. Before stimulation, cells were maintained 4 hours in EBM in the absence of serum or other supplements. Then, S100A4 (0.3-1-3 μM), in EBM were added to the culture to analyze their capacity to increase the secretion of active forms of matrix metalloproteinases (MMPs). […] After 24 hours at 37° C., supernatants were centrifuged to remove the debris. Then, 10 μL of Laemmli sample buffer without reducing agent (80 mM Tris-HCl pH 6.8, 4% SDS, 10% glycerol, 0.01% bromophenol blue) was added to 10 μl of each of the clear supernatants that were loaded without boiling in a 8% SDS-polyacrylamide gel copolymerized with Type A gelatine from porcine skin (Sigma) at a final concentration of 1 mg/mL. After electrophoresis, SDS was removed by washing the gel three times for 15 minutes with 2.5% Triton X-100 in H2O. […] Staining was performed for 1 hour at RT with 0.1% naphthol amido black (Sigma) in acetic acid, methanol and water at a proportion of 1:3:6 in volume. Then, gels were washed with destaining solution until clear bands were observed over a dark background. Bands were quantified using the NIH ImageJ imaging software.

Human S100A7 = target: T2, Human S100A7 (Homo sapiens, UniProt P31151); experiment: ELISA specificity (reaction pattern of mAb); assay type: binding; set-up: key: ++++ positive reaction; − no reaction
T2 construct: made in house
T2 sequence (P31151 1-101): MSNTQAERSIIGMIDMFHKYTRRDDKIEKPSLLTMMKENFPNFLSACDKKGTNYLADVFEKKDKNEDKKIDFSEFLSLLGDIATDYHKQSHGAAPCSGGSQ

T1 sequence (P07091 whole entry): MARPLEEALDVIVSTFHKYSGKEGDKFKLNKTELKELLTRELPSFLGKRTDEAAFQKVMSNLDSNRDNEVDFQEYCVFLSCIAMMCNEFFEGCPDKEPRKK

B1: 5C3: mouse monoclonal anti-S100A4 antibody, IgG1, from hybridoma ECACC 10022401; VL SEQ ID NO: 1, VH SEQ ID NO: 2 (antibody, V domains shown)
VH: EAQLQQSGAELVKPGASVKLSCTASGFNIQETYMHWVKQRPEQGLEWIGRIDPANGNTKDDPKFQGKASITVDTSSNTAYLQLSSLTSEDTAVYYCASSYAMDYWGQGTSVTVSS
VL: DVLMTQTPLSLPVSLGDQASISCRSSQSIVHSNGNTYLEWYLQKTGQSPELLIYKVSNRLSGVPDRFSGSGSGTDFTLKISRVEAEDLGVYYCFQGSHVPFTFGSGTKLEIK
modifications: VH region of the 5C3 monoclonal antibody; VL region of the 5C3 monoclonal antibody
Reaction Pattern of mAb in ELISA, Mouse S100A4 (Mouse S100A4): ++++
reaction with murine S100A4 by ELISA (Mouse S100A4; purified protein): reacted
activity of MMP9 in the media [1]: completely reduced
Reaction Pattern of mAb in ELISA, Human S100A7 (Human S100A7): −
